Laboratory results reported in paper PMC4355161.
Read-outs that look alike come from different tables or passages of the source.

Columns and labels:
[1] = target: 0/20 H2A T11C-Cy3 nucleosomes (UniProt P06897); assay: FRET or BRET
[2] = target: 0/20 Cy3 DNA(−25) nucleosomes; assay: FRET or BRET
[3] = target: 0/20 Cy3 DNA(+20) nucleosomes; assay: FRET or BRET
[4] = target: 0/20 H2A T11C-Cy3 nucleosomes (UniProt P06897); assay: FRET or BRET; remark: listed apart in the source
[5] = target: 0/20 Cy3 DNA(−25) nucleosomes; assay: FRET or BRET; remark: listed apart in the source
[6] = target: 0/20 Cy3 DNA(+20) nucleosomes; assay: FRET or BRET; remark: listed apart in the source
[7] = target: 30/30 nucleosomes labeled with Cy3 on H4 A15C (UniProt P62799); assay: other fluorescence titration

FRET ratio [1]	FRET ratio [2]	FRET ratio [3]	FRET ratio [4]	FRET ratio [5]	FRET ratio [6]	fold preference over core nucleosomes [7] [fold]	fold tighter binding than to core nucleosomes [7] [fold]	Substance
0.39	0.4	0.51	0.56	0.49	0.34			SNF2h A930C-Cy5 (from UniProt O60264 1-729; O60264 730-1052) (enzyme)
						4.9	2.1	wild type SNF2h (from UniProt O60264 1-1052) (enzyme)
